Four molecules from article PMC6895263 can be followed below.

Substitutions are numbered along the chain they refer to. Read-outs that look alike come from different tables or passages of the source.

Data set [1] has as its target T1, ZBTB24 ZF4-8 (Mus musculus, UniProt Q80X44 375-519).
T1 sequence: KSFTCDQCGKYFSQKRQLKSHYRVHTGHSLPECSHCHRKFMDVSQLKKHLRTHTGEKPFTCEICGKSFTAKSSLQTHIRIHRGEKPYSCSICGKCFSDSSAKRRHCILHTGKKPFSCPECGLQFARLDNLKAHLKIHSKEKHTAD
The experiment in a line: X-ray crystallography.

For a further data set, the target named is T2, GST-ZBTB24 ZF1-8 C382Y (Mus musculus, UniProt Q80X44 288-519, C382Y).
T2 sequence: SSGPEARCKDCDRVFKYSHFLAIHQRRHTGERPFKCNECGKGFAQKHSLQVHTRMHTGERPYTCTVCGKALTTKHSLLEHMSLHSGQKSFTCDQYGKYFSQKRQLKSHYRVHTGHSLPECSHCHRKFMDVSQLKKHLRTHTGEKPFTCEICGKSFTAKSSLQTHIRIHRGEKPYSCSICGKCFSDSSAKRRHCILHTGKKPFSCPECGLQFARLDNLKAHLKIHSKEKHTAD
The experiment in a line: EMSA.

In a further data set the target is T3, GST-ZBTB24 ZF1-8 C407G (Mus musculus, UniProt Q80X44 288-519, C407G).
T3 sequence: T2 sequence with Y95C, C120G
The experiment in a line: EMSA. A general note: A gel shift assay detects complexes by their altered migration in electrophoresis.

In data set [2] the target is T1, ZBTB24 ZF4-8. As to the kind of experiment: X-ray crystallography. This is another data set of the same source.

B1: TG oligo (6ML2) (dsDNA)
DNA 1: TTTAGCTGCCAGGACCTGCG
DNA 2: ACGCAGGTCCTGGCAGCTAA
Take B1: in the data set with ZBTB24 ZF4-8 [1], the binding result is reported as “binds”.

B2: TT oligo (6ML3) (dsDNA)
DNA 1: TTTAGCTTCCAGGACCTGCG
DNA 2: ACGCAGGTCCTGGAAGCTAA
For the molecule B2, the binding result with ZBTB24 ZF4-8 [1] is on record as “binds”.

B3: EMSA probe with ZBTB24 motif (dsDNA)
DNA 1: TCCACTGCCAGGACCTTT
DNA 2: AAAAGGTCCTGGCAGTGG
In the case of B3, the binding result with GST-ZBTB24 ZF1-8 C382Y and in the data set with GST-ZBTB24 ZF1-8 C407G was “no binding” each time.

B4: GT oligo (6ML4) (dsDNA)
DNA 1: TGCTTCGTCCAGGACCTGCG
DNA 2: ACGCAGGTCCTGGACGAAGC
Regarding B4, in the data set with ZBTB24 ZF4-8 [2], the binding result was “binds”.
